Results on one molecule are retold here after publication PMC8924211 (Nature Communications, 2022).

The target of one assay is T1, SNAP-GAL2R R184^5.35A (human, UniProt O43603 1-387, R184^5.35A, Lumi4-Tb on the SNAP tag).
T1 construct: also called R184A; source: HEK293, transfected, on cells; not shown: SNAP tag, N-terminal, kept
T1 sequence (looked up): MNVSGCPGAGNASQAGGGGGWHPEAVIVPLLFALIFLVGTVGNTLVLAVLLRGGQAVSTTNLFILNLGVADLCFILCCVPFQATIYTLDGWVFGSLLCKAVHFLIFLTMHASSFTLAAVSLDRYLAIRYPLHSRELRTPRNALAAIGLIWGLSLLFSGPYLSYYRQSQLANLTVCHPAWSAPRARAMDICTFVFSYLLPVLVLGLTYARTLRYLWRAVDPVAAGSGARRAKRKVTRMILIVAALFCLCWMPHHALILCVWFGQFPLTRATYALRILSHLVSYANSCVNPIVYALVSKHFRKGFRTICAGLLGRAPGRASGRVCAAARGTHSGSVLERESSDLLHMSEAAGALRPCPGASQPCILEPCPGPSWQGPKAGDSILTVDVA
The experiment in a line: AlphaScreen or HTRF; saturation binding: HEK293 cells transfected with SNAP-tagged receptor (WT or mutant) and labelled with SNAP-Lumi4-Tb, incubated with increasing concentrations of galanin-A2 in the presence or absence of 100 uM unlabeled galanin, 1 h at room temperature; HTRF ratio 665 nm/620 nm. As to conditions: one partner purified. For orientation: In Alpha technology, singlet oxygen from a donor bead excites a nearby acceptor bead.

In another assay the target is T2, SNAP-GAL2R R274^7.35A (human, UniProt O43603 1-387, R274^7.35A, Lumi4-Tb on the SNAP tag).
T2 construct: also called R274A; source: HEK293, transfected, on cells; not shown: SNAP tag, N-terminal, kept
T2 sequence (looked up): T1 sequence (looked up) with A184R, R274A
The description is as above. As to conditions: one partner purified.

In a further assay the target is T3, SNAP-GAL2R L255^6.54A (human, UniProt O43603 1-387, L255^6.54A, Lumi4-Tb on the SNAP tag).
T3 construct: also called L255A; source: HEK293, transfected, on cells; not shown: SNAP tag, N-terminal, kept
T3 sequence (looked up): T1 sequence (looked up) with A184R, L255A
The description is as above. As to conditions: one partner purified.

Another assay has as its target T4, SNAP-GAL2R I256^6.55A (human, UniProt O43603 1-387, I256^6.55A, Lumi4-Tb on the SNAP tag).
T4 construct: also called I256A; source: HEK293, transfected, on cells; not shown: SNAP tag, N-terminal, kept
T4 sequence (looked up): T1 sequence (looked up) with A184R, I256A
Described as above. As to conditions: one partner purified.

The target in assay [1] is SNAP-GAL2R Y271^7.32A (human) (UniProt O43603). Put plainly: AlphaScreen or HTRF; saturation binding: HEK293 cells transfected with SNAP-GAL1R or SNAP-GAL2R (WT or mutants), labelled with SNAP-Lumi4-Tb; increasing concentrations of galanin-A2 with or without 100 uM unlabeled galanin, 1 h at room temperature.
The target of assay [2] is SNAP-GAL2R Q82^2.61A (human) (UniProt O43603). The description is as above.
Assay [3] deals with SNAP-GAL2R F264^ECL3A (human) (UniProt O43603). The description is as above.

Changes are numbered by the printed parent chain.

Sequence of SNAP-GAL2R Y271^7.32A (human) (O43603 whole entry Y271A): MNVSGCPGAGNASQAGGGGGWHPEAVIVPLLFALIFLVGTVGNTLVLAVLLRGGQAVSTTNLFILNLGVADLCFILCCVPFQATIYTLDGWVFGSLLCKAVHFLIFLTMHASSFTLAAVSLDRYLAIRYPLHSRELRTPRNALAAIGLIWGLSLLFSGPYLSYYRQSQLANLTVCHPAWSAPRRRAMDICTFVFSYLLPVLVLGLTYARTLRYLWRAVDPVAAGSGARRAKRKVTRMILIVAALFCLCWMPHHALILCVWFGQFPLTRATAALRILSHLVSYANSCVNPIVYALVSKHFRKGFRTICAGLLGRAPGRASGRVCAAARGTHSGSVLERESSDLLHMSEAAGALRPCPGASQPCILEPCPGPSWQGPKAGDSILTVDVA
Sequence of SNAP-GAL2R Q82^2.61A (human) (O43603 whole entry Q82A): as the sequence (O43603 whole entry Y271A) above, with Q82A, A271Y counted along it
Sequence of SNAP-GAL2R F264^ECL3A (human) (O43603 whole entry F264A): as the sequence (O43603 whole entry Y271A) above, with F264A, A271Y counted along it

B1: galanin-A2 (full-length galanin labeled with the dye A2 on an additional cysteine at the C-terminal end) (peptide)
peptide: GWTLNSAGYLLGPHAVGNHRSFSDKNGLTSC
modifications: dye A2 on the additional C-terminal cysteine
notes: numbers count on: the mature protein; additional cysteine at the C-terminal end of the peptide, carries the dye A2; source: synthetic peptide (synthesized by Vazyme, China)
As for B1, the Kd is 286 nM with SNAP-GAL2R R184^5.35A; 553 nM in the assay with SNAP-GAL2R R274^7.35A; 55.1 nM with SNAP-GAL2R L255^6.54A; 221 nM with SNAP-GAL2R I256^6.55A; over 500 nM in assay [1]; over 500 nM in assay [2]. The molecule further had a Kd in assay [3] of over 500 nM.

One may read the Kd as a measure of binding affinity in units of concentration.
